In patent US20050186646:

Assays:
[1] = biological target: T1, recombinant double-tagged VWF-A2 peptide
T1 chain: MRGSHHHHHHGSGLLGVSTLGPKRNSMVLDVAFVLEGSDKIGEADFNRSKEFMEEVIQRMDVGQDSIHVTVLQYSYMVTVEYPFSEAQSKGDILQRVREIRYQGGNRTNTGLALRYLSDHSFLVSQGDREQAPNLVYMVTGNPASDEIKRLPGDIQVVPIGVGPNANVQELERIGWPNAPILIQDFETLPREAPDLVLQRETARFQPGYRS

[2] = biological target: T2, recombinant single-tagged VWF-A2 peptide
T2 chain: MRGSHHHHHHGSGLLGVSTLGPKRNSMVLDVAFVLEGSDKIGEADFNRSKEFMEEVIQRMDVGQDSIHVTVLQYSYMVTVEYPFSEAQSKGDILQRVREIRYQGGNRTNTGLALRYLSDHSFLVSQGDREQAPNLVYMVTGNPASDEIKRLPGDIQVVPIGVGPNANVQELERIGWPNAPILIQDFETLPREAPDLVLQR

B1: ADAMTS-13 (protein)
chain: AAGGILHLELLVAVGPDVFQAHQEDTERYVLTNLNIGAELLRDPSLGAQFRVHLVKMVILTEPEGAPNITANLTSSLLSVCGWSQTINPEDDTDPGHADLVLYITRFDLELPDGNRQVRGVTQLGGACSPTWSCLITEDTGFDLGVTIAHEIGHSFGLEHDGAPGSGCGPSGHVMASDGAAPRAGLAWSPCSRRQLLSLLSAGRARCVWDPPRPQPGSAGHPPDAQPGLYYSANEQCRVAFGPKAVACTFAREHLDMCQALSCHTDPLDQSSCSRLLVPLLDGTECGVEKWCSKGRCRSLVELTPIAAVHGRWSSWGPRSPCSRSCGGGVVTRRRQCNNPRPAFGGRACVGADLQAEMCNTQACEKTQLEFMSQQCARTDGQPLRSSPGGASFYHWGAAVPHSQGDALCRHMCRAIGESFIMKRGDSFLDGTRCMPSGPREDGTLSLCVSGSCRTFGCDGRMDSQQVWDRCQVCGGDNSTCSPRKGSFTAGRAREYVTFLTVTPNLTSVYIANHRPLFTHLAVRIGGRYVVAGKMSISPNTTYPSLLEDGRVEYRVALTEDRLPRLEEIRIWGPLQEDADIQVYRRYGEEYGNLTRPDITFTYFQPKPRQAWVWAAVRGPCSVSCGAGLRWVNYSCLDQARKELVETVQCQGSQQPPAWPEACVLEPCPPYWAVGDFGPCSASCGGGLRERPVRCVEAQGSLLKTLPPARCRAGAQQPAVALETCNPQPCPARWEVSEPSSCTSAGGAGLALENETCVPGADGLEAPVTEGPGSVDEKLPAPEPCVGMSCPPGWGHLDATSAGEKAPSPWGSIRTGAQAAHVWTPAAGSCSVSCGRGLMELRFLCMDSALRVPVQEELCGLASKPGSRREVCQAVPCPARWQYKLAACSVSCGRGVVRRILYCARAHGEDDGEEILLDTQCQGLPRPEPQEACSLEPCPPRWKVMSLGPCSASCGLGTARRSVACVQLDQGQDVEVDEAACAALVRPEASVPCLIADCTYRWHVGTWMECSVSCGDGIQRRRDTCLGPQAQAPVPADFCQHLPKPVTVRGCWAGPCVGQGTPSLVPHEEAAAPGRTTATPAGASLEWSQARGLLFSPAPQPRRLLPGPQENSVQSSACGRQHLEPTGTIDMRGPGQADCAVAIGRPLGEVVTLRVLESSLNCSAGDMLLLWGRLTWRKMCRKLLDMTFSSKTNTLVVRQRCGRPGGGVLLRYGSQLAPETFYRECDMQLFGPWGEIVSPSLSPATSNAGGCRLFINVAPHARIAIHALATNMGAGTEGANASYILIRDTHSLRTTAFHGQQVLYWESESSQAEMEFSEGFLKAQASLRGQYWTLQSWVPEMQDPQSWKGKEGT
cleavage of double-tagged VWF-A2 peptide, ELISA (loss of Tag-100 signal) [1]: the specific cleavage activity by ADAMTS-13 on the VWF-A2 peptide was also demonstrated using three different dilutions of partially isolated ADAMTS-13 (275 µg/mL of total protein) (FIG. 5B)
cleavage of double-tagged VWF-A2 peptide, immunoblot [1]: The cleavage of the double-tagged VWF-A2 peptide by ADAMTS-13 was efficiently detected by immunoblotting
cleavage of VWF-A2 protein, immunoblot (16 kDa band) [2]: Healthy plasma (FIG. 2, lane 1), and partially isolated ADAMTS-13 (FIG. 2, lane 3) produced the expected band of 16 kDa
cleavage of recombinant single-tagged VWF-A2 (16 kDa band) [2]: After one hour incubation, proteolysis by plasma from a healthy individual and the partially isolated enzyme produced the expected 16 kD band corresponding to the sequence 1481-1605 of SEQ ID NO:8 plus the 12 amino acid residues from the His-tag
